In patent CN101386648A (MICROORGANISM EPIDEMIC INST OF, dated 2009) one finds binding result and Kd data, which are given here for two molecules.

For assay [1], the target named is T1, E型肉毒神经毒素 (botulinum neurotoxin type E) (Clostridium botulinum, UniProt Q00496 2-1251).
T1 sequence: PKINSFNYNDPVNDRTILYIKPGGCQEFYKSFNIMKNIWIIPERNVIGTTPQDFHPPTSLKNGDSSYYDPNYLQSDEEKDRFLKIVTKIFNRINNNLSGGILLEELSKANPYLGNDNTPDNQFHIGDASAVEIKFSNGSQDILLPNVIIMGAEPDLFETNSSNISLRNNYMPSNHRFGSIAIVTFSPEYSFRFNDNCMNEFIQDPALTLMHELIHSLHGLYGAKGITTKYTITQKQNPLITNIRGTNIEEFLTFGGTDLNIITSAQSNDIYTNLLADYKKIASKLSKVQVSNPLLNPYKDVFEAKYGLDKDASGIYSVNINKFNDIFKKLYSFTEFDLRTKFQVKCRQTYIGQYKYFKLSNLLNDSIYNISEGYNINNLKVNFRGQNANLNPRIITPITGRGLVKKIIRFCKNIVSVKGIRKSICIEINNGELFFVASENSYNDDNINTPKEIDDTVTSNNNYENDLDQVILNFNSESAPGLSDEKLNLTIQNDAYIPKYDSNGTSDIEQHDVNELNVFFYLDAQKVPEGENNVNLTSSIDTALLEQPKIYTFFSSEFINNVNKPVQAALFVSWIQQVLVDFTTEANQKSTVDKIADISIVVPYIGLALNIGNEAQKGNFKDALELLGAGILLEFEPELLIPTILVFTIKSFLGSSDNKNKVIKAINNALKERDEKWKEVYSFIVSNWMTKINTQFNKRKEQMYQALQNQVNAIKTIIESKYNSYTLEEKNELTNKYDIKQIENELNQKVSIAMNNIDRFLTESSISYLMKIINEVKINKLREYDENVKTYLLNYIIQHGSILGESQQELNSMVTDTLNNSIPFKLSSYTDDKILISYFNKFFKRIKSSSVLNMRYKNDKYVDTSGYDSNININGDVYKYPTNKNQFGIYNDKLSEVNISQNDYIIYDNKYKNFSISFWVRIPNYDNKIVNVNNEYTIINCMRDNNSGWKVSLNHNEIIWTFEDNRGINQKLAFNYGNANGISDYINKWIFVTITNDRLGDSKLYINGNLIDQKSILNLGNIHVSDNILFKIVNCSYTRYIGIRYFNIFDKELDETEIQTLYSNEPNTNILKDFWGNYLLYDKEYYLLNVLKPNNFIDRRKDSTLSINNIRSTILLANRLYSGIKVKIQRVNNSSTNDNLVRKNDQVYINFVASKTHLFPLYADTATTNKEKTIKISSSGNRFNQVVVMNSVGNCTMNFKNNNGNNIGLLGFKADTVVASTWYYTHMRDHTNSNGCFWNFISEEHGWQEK
As to the kind of experiment: ELISA. Background: ELISA stands for enzyme-linked immunosorbent assay.

Assay [2] deals with A型肉毒神经毒素 (botulinum neurotoxin type A) (Clostridium botulinum, UniProt P0DPI0 2-1296). The assay is described as follows: ELISA.
Chain of A型肉毒神经毒素 (botulinum neurotoxin type A) (P0DPI0 2-1296 limits assumed): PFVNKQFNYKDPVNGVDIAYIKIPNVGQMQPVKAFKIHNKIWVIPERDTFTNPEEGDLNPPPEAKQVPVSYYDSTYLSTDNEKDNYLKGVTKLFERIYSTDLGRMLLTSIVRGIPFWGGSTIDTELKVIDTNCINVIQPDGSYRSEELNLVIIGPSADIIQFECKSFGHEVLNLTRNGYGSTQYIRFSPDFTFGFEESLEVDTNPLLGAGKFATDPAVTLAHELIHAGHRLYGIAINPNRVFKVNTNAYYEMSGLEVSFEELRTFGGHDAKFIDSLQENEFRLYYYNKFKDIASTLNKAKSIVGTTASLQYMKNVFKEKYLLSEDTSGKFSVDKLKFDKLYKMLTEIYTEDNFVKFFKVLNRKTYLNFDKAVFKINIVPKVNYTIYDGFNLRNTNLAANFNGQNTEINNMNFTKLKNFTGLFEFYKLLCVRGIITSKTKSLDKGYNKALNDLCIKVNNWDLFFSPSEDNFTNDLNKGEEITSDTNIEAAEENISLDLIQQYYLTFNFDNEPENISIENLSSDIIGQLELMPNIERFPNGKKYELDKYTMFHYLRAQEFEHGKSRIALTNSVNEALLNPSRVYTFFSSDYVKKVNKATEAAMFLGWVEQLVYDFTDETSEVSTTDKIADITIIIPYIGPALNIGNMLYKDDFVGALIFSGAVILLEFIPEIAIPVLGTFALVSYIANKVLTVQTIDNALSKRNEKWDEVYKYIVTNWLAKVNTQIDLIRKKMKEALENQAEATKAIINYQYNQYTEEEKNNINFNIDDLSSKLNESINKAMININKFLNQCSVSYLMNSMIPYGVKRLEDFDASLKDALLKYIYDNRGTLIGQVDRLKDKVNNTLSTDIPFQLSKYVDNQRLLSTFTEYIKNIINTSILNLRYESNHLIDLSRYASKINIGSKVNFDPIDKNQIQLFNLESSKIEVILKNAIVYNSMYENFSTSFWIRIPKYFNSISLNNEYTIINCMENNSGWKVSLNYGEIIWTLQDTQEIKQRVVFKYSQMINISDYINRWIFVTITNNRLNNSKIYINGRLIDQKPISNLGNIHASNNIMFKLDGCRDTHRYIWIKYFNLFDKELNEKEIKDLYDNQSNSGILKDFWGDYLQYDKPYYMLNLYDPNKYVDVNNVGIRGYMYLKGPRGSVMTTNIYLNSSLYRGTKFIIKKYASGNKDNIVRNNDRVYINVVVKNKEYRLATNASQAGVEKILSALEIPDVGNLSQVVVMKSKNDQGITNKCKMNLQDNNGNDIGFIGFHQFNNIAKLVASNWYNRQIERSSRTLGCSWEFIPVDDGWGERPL
In assay [3] the target is T2, F型肉毒神经毒素 (botulinum neurotoxin type F) (Clostridium botulinum, UniProt P30996 1-1274).
T2 sequence: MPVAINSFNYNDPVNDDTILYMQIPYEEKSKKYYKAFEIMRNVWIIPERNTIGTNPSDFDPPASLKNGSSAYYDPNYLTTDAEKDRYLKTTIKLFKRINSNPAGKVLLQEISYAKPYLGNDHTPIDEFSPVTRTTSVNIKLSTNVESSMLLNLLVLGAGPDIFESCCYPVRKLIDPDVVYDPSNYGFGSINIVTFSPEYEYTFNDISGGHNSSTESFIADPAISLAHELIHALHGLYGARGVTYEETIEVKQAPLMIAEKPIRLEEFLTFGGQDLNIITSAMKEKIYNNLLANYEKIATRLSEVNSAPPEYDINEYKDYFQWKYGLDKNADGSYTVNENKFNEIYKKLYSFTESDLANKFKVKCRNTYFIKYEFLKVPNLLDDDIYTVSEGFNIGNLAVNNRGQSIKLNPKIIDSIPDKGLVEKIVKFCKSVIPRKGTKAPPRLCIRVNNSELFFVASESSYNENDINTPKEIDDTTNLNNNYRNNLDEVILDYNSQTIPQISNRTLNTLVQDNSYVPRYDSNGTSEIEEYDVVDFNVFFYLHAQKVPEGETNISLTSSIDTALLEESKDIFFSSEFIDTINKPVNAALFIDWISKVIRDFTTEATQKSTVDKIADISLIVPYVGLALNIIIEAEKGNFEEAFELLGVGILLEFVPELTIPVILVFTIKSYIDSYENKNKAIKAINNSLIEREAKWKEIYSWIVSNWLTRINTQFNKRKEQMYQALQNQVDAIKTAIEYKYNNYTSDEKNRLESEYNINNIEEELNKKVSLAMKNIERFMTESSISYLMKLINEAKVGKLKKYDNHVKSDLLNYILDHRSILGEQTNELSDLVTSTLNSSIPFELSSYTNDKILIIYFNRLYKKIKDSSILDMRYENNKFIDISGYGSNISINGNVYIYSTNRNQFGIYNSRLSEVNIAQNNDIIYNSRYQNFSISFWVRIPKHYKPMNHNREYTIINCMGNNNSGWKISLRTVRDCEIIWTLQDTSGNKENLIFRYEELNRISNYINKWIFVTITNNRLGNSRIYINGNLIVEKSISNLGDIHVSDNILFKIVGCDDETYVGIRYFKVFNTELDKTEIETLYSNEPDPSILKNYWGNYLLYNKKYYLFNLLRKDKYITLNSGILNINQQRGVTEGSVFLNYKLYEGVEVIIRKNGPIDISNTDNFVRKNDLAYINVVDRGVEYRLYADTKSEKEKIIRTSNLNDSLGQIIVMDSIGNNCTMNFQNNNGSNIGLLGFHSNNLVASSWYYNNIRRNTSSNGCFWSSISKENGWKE
The assay is described as follows: ELISA.

Assay [4] deals with T3, B型肉毒神经毒素 (botulinum neurotoxin type B) (Clostridium botulinum, UniProt P10844 2-1291).
T3 sequence: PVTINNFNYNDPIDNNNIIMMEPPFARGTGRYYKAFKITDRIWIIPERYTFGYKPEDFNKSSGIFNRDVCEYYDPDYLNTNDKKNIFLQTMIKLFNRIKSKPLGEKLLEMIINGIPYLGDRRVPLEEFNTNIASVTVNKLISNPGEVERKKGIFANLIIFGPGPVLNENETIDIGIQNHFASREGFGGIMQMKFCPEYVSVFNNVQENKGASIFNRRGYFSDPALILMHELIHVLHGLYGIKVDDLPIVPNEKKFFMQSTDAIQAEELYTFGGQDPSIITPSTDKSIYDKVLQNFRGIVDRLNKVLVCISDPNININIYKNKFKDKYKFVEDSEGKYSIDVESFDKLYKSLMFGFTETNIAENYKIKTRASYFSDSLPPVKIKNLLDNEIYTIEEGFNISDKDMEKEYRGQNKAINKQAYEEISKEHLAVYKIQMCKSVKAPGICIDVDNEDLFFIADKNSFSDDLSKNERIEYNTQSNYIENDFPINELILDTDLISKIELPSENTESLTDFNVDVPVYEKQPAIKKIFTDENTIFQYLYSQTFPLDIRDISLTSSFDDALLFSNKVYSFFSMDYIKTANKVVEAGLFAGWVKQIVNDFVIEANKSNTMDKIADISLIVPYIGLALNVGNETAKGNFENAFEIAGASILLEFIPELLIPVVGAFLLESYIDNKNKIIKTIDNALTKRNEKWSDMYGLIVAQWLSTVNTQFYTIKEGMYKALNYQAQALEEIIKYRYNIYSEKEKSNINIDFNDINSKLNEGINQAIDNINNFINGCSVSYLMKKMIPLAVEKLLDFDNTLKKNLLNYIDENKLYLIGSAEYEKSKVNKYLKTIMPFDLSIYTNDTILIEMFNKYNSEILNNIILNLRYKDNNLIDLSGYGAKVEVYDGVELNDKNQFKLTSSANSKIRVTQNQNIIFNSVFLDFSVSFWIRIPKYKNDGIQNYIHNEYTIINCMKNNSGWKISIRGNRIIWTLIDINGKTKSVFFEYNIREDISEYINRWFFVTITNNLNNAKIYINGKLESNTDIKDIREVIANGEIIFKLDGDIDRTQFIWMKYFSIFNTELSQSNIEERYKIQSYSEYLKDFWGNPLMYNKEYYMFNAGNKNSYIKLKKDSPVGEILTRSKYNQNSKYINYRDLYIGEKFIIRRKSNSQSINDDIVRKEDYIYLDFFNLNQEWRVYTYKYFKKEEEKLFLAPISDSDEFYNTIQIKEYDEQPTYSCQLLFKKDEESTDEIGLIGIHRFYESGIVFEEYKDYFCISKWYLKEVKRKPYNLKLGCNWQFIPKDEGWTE
As to the kind of experiment: SPR (Biacore 3000, CM5 chip), […]. On the technique in general: In SPR one partner is held on a chip, and binding of the other changes the refractive index at the surface.

Substitutions are numbered along the chain they refer to.

B1: 人源化抗B型肉毒神经毒素中和性抗体HuBNbP8 (recombinant MBP-scFv fusion protein expressed from pMAL-HuFv) (scFv)
scFv: AQVQLVQSGAEVVKPGASVKLSCKASGYTFTSYYIYWVKQRPGQGLGWIGEIYPSNGGTNFNEKFKTKATLTVDKSASTAYMQLSSLTSEDSTVYYCARMGNYGGSYFDYWGQGTTLTVSSGGGGSGGGGSGGGGSDIVLTQSPATLSVTPGESVSLSCGASQSISNNLHWYQQKSHESPRLLIKFASQSISGIPSKFSGSGSGTDFSLSINSLETEDFGVFFCQQSDTWPYTFGGGTKLEIKRAAAE
Consider B1, for which the binding result in assay [1], in assay [2] and in assay [3] was “no binding” throughout. Besides, the Kd (usually the concentration at which binding is half-saturated) in assay [4] was 1.34 nM.

B2: 鼠源抗B型肉毒神经毒素中和性抗体MuBNbP8 (recombinant MBP-scFv fusion protein expressed from pMAL-MuFv) (scFv)
scFv: B1 scFv with Q4K, V6Q, V12L, A77S, E153D
In the case of B2, the binding result in assay [1], in assay [2] and in assay [3] was “no binding” each time.
